Consider 15 molecules from patent US12383631B2, “Immune antigen specific IL-18 immunocytokines and uses thereof” (Bright Peak Therapeutics AG, priority 2022, dated 2025).

In one assay the target is T1, human IL-18BP (Homo sapiens, UniProt O95998).
T1 sequence (O95998 31-194): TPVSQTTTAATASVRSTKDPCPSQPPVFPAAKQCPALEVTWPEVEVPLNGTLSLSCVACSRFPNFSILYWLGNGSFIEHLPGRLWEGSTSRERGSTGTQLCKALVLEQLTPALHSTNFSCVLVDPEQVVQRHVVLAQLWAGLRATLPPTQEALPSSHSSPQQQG
Briefly: IL-18BP binding AlphaLISA assay (Example 4 / 17B). To be noted: IL-18 binding protein AlphaLISA. The procedure: A human IL-18BP AlphaLISA Assay Kit is used to determine the binding affinity of each immunocytokine and IL-18 variant for IL-18BP, which detected the presence of free form IL-18BP.
Sixteen three-fold serial dilutions of IL-18 analytes are prepared in aMEM medium supplemented with 20% FCS, Glutamax, and 25 μM β-mercaptoethanol in the presence of 5 ng/mL of His-tagged human IL-18BP. Final IL-18 analytes concentration range from 2778 nM to 0.2 pM.
After 1 hr incubation at room temperature, free IL-18BP levels are measured using a […]. In a 384 well OPTIplate, 5 μL of 5× Anti-IL-18BP acceptor beads are added to 7.5 μL of an IL-18/IL-18BP mix. After 30 min incubation at room temperature with shaking, 5 μL of biotinylated Anti-IL-18BP antibodies are added to each well. The plate is incubated further for 1 hr at room temperature. Under subdued light, 12.5 μL of 2× streptavidin (SA) donor beads are pipetted into each well, and the wells are incubated with shaking for an additional 30 min at room temperature. The AlphaLisa signal is then measured on an Enspire plate reader with 680 and 615 nm as excitation and emission wavelengths, respectively. The dissociation constant (KD) is calculated based on a variable slope, four parameter analysis using GraphPad PRISM software.
17B—IL-18 BP AlphaLISA assay—An IL-18 binding protein AlphaLISA experiment substantially as described in Example 4 was performed on IL-18 polypeptide which can be incorporated into immunocytokine compositions as provided herein to assess ability to bind to IL-18BP.

Assay [1] concerns the target T2, human IL-18 binding protein isoform a (IL-18BPa) (Homo sapiens, UniProt O95998).
T2 sequence (O95998 31-194): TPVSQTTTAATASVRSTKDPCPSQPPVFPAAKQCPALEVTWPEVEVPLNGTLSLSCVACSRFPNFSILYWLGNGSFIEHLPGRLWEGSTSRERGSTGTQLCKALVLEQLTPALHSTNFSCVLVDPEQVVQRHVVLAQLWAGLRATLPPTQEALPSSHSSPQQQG
In words: IL-18 Binding Protein inhibition cellular assay in NK-92 cells (Example 4 / 17C). The assay is classed as cell-based. To be noted: inhibition by IL-18BP of IFNγ stimulation in NK92 cells. The procedure:
The NK cell line NK-92 derived from a patient with lymphoma (ATCC® CRL-2407™) is cultured in aMEM medium supplemented with 20% FCS-Glutamax, 25 μM β-mercaptoethanol, and 100 IU/mL of recombinant human IL-2.
On the day of experiment, cells are harvested and washed with aMEM medium without IL-2 and containing 1 ng/mL of recombinant human IL-12. After counting, the cells are seeded at 100,000 cells/well in a 384 well titer plate and incubated at 37° C./5% CO2. Sixteen 2-fold serial dilutions of Fc-fused human IL-18 binding protein isoform a (IL-18BPa) are prepared in aMEM medium. 1 ng/mL of IL-12 containing 2 nM of each modified IL-18 polypeptide variant is added to the NK-92 cells. The final IL-18 analyte concentration is 1 nM, and the final IL-18BPa concentration ranged from 566 nM to 17 pM.
After incubating the cells for 16-20 hr at 37° C./5% CO2, 5 μL of the supernatant is carefully transferred to a 384 microwell OptiPlate. IFNγ levels are measured using a human IFNγ AlphaLISA Assay Kit. Briefly, 10 μL of 2.5× AlphaLISA anti-IFNγ acceptor beads and biotinylated antibody anti-IFNγ mix are added to 5 μL of NK-92 supernatants. The mixtures are incubated for 1 hr at room temperature with shaking. Under subdued light, 2.5 μL of 2×SA donor beads are pipetted in each well and incubated for 30 min at room temperature with shaking. AlphaLISA signals are then measured on an EnSpire™ plate reader using 680 nm and 615 nm as excitation and emission wavelengths, respectively. Half maximal inhibitory concentrations (IC50) are calculated based on a variable slope and four parameter analysis using GraphPad PRISM software.
17C—IFNγ Stimulation and IL-18BP Inhibition Assay—The experiments described in Example 4 for determination of IFNg stimulation in NK92 cells (and inhibition by IL-18 BP) were performed substantially as described on modified IL-18 polypeptides in order to assess their activities and their suitability for incorporation into immunocytokine compositions.

Bounds are passed on as bounds.

B1: SEQ ID NO: 72: IL-18 polypeptide: N-terminal 4xG, E6K, V11I, C38A, K53A, T63A, C76A, C127A (protein)
chain: GGGGYFGKLKSKLSIIRNLNDQVLFIDQGNRPLFEDMTDSDARDNAPRTIFIISMYADSQPRGMAVAISVKCEKISTLSAENKIISFKEMNPPDNIKDTKSDIIFFQRSVPGHDNKMQFESSSYEGYFLAAEKERDLFKLILKKEDELGDRSIMFTVQNED
modifications: N-terminal 4xG
notes: IL-18 polypeptide: N-terminal 4xG, E6K, V11I, C38A, K53A, T63A, C76A, C127A
In the case of B1, the Kd (in general, the concentration at which binding is half-saturated) in the assay with human IL-18BP was greater than 2800 nM.

B2: C177: IL-18 polypeptide: E6K, V11I, C38A, I49R, K53A, T63A, C76A, C127A (protein)
chain: YFGKLKSKLSIIRNLNDQVLFIDQGNRPLFEDMTDSDARDNAPRTIFIRSMYADSQPRGMAVAISVKCEKISTLSAENKIISFKEMNPPDNIKDTKSDIIFFQRSVPGHDNKMQFESSSYEGYFLAAEKERDLFKLILKKEDELGDRSIMFTVQNED
Turning to B2, in the assay with human IL-18BP, the Kd is greater than 2800 nM.

B3: C168: IL-18 polypeptide: V11I, C38A, C76A, S105K, C127A (protein)
chain: YFGKLESKLSIIRNLNDQVLFIDQGNRPLFEDMTDSDARDNAPRTIFIISMYKDSQPRGMAVTISVKCEKISTLSAENKIISFKEMNPPDNIKDTKSDIIFFQRKVPGHDNKMQFESSSYEGYFLAAEKERDLFKLILKKEDELGDRSIMFTVQNED
Take B3: in assay [1], the IC50 (usually the point on the concentration scale where inhibition reaches its midpoint) worked out at 0.176 nM.

B4: C163: IL-18 polypeptide: V11I, C38A, C76A, Q103K, C127A (protein)
chain: YFGKLESKLSIIRNLNDQVLFIDQGNRPLFEDMTDSDARDNAPRTIFIISMYKDSQPRGMAVTISVKCEKISTLSAENKIISFKEMNPPDNIKDTKSDIIFFKRSVPGHDNKMQFESSSYEGYFLAAEKERDLFKLILKKEDELGDRSIMFTVQNED
Molecule B4 registered an IC50 in assay [1] of 0.823 nM.

B5: C162: IL-18 polypeptide: K8E, V11I, C38A, C76A, Q103R, C127A (protein)
chain: YFGKLESELSIIRNLNDQVLFIDQGNRPLFEDMTDSDARDNAPRTIFIISMYKDSQPRGMAVTISVKCEKISTLSAENKIISFKEMNPPDNIKDTKSDIIFFRRSVPGHDNKMQFESSSYEGYFLAAEKERDLFKLILKKEDELGDRSIMFTVQNED
B5 yielded an IC50 in assay [1] of 7.29 nM. Against the preceding molecule, the IC50 is about 8.9-fold higher.

B6: C181: IL-18 polypeptide: E6K, V11I, C38A, K53A, T63A, C76A, C127A, V153E (protein)
chain: YFGKLKSKLSIIRNLNDQVLFIDQGNRPLFEDMTDSDARDNAPRTIFIISMYADSQPRGMAVAISVKCEKISTLSAENKIISFKEMNPPDNIKDTKSDIIFFQRSVPGHDNKMQFESSSYEGYFLAAEKERDLFKLILKKEDELGDRSIMFTEQNED
Turning to B6, in the assay with human IL-18BP, the Kd is greater than 2800 nM.

B7: C178: IL-18 polypeptide: E6K, V11I, C38A, K53A, T63A, C76A, Q103R, C127A (protein)
chain: YFGKLKSKLSIIRNLNDQVLFIDQGNRPLFEDMTDSDARDNAPRTIFIISMYADSQPRGMAVAISVKCEKISTLSAENKIISFKEMNPPDNIKDTKSDIIFFRRSVPGHDNKMQFESSSYEGYFLAAEKERDLFKLILKKEDELGDRSIMFTVQNED
On to B7, for which the Kd with human IL-18BP is greater than 2800 nM.

B8: C165: IL-18 polypeptide: V11I, C38A, S55R, C76A, C127A (protein)
chain: YFGKLESKLSIIRNLNDQVLFIDQGNRPLFEDMTDSDARDNAPRTIFIISMYKDRQPRGMAVTISVKCEKISTLSAENKIISFKEMNPPDNIKDTKSDIIFFQRSVPGHDNKMQFESSSYEGYFLAAEKERDLFKLILKKEDELGDRSIMFTVQNED
In assay [1], B8 showed an IC50 of 0.885 nM.

B9: C166: IL-18 polypeptide: V11I, C38A, S55T, C76A, C127A (protein)
chain: YFGKLESKLSIIRNLNDQVLFIDQGNRPLFEDMTDSDARDNAPRTIFIISMYKDTQPRGMAVTISVKCEKISTLSAENKIISFKEMNPPDNIKDTKSDIIFFQRSVPGHDNKMQFESSSYEGYFLAAEKERDLFKLILKKEDELGDRSIMFTVQNED
The molecule B9 gave an IC50 in assay [1] of 0.44 nM.

B10: SEQ ID NO: 69: IL-18 polypeptide: E6K, V11I, C38A, M51G, K53A, T63A, C76A, C127A (protein)
chain: YFGKLKSKLSIIRNLNDQVLFIDQGNRPLFEDMTDSDARDNAPRTIFIISGYADSQPRGMAVAISVKCEKISTLSAENKIISFKEMNPPDNIKDTKSDIIFFQRSVPGHDNKMQFESSSYEGYFLAAEKERDLFKLILKKEDELGDRSIMFTVQNED
Take B10: the Kd with human IL-18BP was greater than 2800 nM.

B11: C161: IL-18 polypeptide: K8R, V11I, C38A, C76A, Q103E, C127A (protein)
chain: YFGKLESRLSIIRNLNDQVLFIDQGNRPLFEDMTDSDARDNAPRTIFIISMYKDSQPRGMAVTISVKCEKISTLSAENKIISFKEMNPPDNIKDTKSDIIFFERSVPGHDNKMQFESSSYEGYFLAAEKERDLFKLILKKEDELGDRSIMFTVQNED
The molecule B11 registered a half-maximal inhibitory concentration (IC50) in assay [1] of 1.07 nM. In other words, the single-digit nanomolar range.

B12: C167: IL-18 polypeptide: V11I, C38A, C76A, S105I, C127A (protein)
chain: YFGKLESKLSIIRNLNDQVLFIDQGNRPLFEDMTDSDARDNAPRTIFIISMYKDSQPRGMAVTISVKCEKISTLSAENKIISFKEMNPPDNIKDTKSDIIFFQRIVPGHDNKMQFESSSYEGYFLAAEKERDLFKLILKKEDELGDRSIMFTVQNED
B12: the IC50 in assay [1] turned out to be 0.809 nM.

B13: C179: IL-18 polypeptide: E6K, K8E, V11I, C38A, K53A, T63A, C76A, Q103R, C127A (protein)
chain: YFGKLKSELSIIRNLNDQVLFIDQGNRPLFEDMTDSDARDNAPRTIFIISMYADSQPRGMAVAISVKCEKISTLSAENKIISFKEMNPPDNIKDTKSDIIFFRRSVPGHDNKMQFESSSYEGYFLAAEKERDLFKLILKKEDELGDRSIMFTVQNED
As for B13, the Kd with human IL-18BP was greater than 2800 nM.

B14: C182: IL-18 polypeptide: E6K, V11I, C38A, K53A, T63A, C76A, C127A, V153Y (protein)
chain: YFGKLKSKLSIIRNLNDQVLFIDQGNRPLFEDMTDSDARDNAPRTIFIISMYADSQPRGMAVAISVKCEKISTLSAENKIISFKEMNPPDNIKDTKSDIIFFQRSVPGHDNKMQFESSSYEGYFLAAEKERDLFKLILKKEDELGDRSIMFTYQNED
Molecule B14 displayed a Kd with human IL-18BP greater than 2800 nM.

B15: C164: IL-18 polypeptide: V11I, C38A, S55H, C76A, C127A (protein)
chain: YFGKLESKLSIIRNLNDQVLFIDQGNRPLFEDMTDSDARDNAPRTIFIISMYKDHQPRGMAVTISVKCEKISTLSAENKIISFKEMNPPDNIKDTKSDIIFFQRSVPGHDNKMQFESSSYEGYFLAAEKERDLFKLILKKEDELGDRSIMFTVQNED
Turning to B15, in assay [1], the IC50 was determined as 0.456 nM.
